# Test results from patent US20260108607A1 (BEIJING DCTY BIOTECH, published 2026).
# Changes are numbered by the printed parent chain.
# B1: humanized antibody 40-2-H9 (98G2E9-VH5 + VL5) (scFv)
# scFv: EVQLLESGGGLVQPGGSLKLSCAASGFTFSGYAMSWVRQTPGKGLEWVATITSGGSYTYYPDSVKGRFTISRDNSKNTLYLQMNSLRAEDTAMYYCARKDYGNYWFAYWGQGTLVTVSSGGGGSGGGGSGGGGSGGGGSDVVMTQSPLSLPVTLGDPASISCRSSQSLVHSDGNTYLHWYLQRPGQSPRLLIYKVSNRFSGVPDRFSGSGSGTDFTLKISRVEAEDVGVYFCSQTTQVPWTFGGGTKLEIK
# notes: the format in the SPR assay is not clearly stated
# B2: humanized antibody 40-2-H10 (98G2E9-VH5 + VL6) (scFv)
# scFv: B1 scFv with D156Q, P157Q, R183K, R189K
# notes: as for B1
# B3: humanized antibody 40-2-H12 (98G2E9-VH6 + VL5) (scFv)
# scFv: B1 scFv with G42E, S75A
# notes: as for B1
# B4: humanized antibody 40-2-H13 (98G2E9-VH6 + VL6) (scFv)
# scFv: B1 scFv with G42E, S75A, D156Q, P157Q, R183K, R189K
# notes: as for B1
# Biological target: T1, EGFRvIII target antigen (SPR ligand) (UniProt P00533 25-645, limits assumed)
# T1 construct: also called EGFRvIII antigen
# Test: SPR
row,fold reduction of affinity against the murine antibody from clone #40-2,Binder
1,~2 fold,B1
2,~2 fold,B2
3,~2 fold,B3
4,~2 fold,B4

# Biological target: T1, EGFRvIII target antigen (SPR ligand)
# Test: SPR; antibody as analyte
Kd,koff,kon,Binder
112 nM,0.00307 s⁻¹,27400 M⁻¹ s⁻¹,B1
135 nM,0.00345 s⁻¹,25600 M⁻¹ s⁻¹,B2
102 nM,0.00266 s⁻¹,26000 M⁻¹ s⁻¹,B3
102 nM,0.00301 s⁻¹,29400 M⁻¹ s⁻¹,B4
